Measurements: article PMC11319201

Biological target: STAG2^R370Q–RAD21 complex (UniProt Q8N3U4)
Test: ITC; MicroCal iTC 200, 25 °C; 20 mM Tris pH 7.7, 150 mM NaCl, 0.5 mM TCEP; 300 μl of 50 μM STAG2–RAD21 in the cell, 500 μM CTCF peptide injected as 16 x 2.5 μl; one-site binding model

Chain of STAG2^R370Q–RAD21 complex (Q8N3U4 whole entry R370Q, chain 1 of 2): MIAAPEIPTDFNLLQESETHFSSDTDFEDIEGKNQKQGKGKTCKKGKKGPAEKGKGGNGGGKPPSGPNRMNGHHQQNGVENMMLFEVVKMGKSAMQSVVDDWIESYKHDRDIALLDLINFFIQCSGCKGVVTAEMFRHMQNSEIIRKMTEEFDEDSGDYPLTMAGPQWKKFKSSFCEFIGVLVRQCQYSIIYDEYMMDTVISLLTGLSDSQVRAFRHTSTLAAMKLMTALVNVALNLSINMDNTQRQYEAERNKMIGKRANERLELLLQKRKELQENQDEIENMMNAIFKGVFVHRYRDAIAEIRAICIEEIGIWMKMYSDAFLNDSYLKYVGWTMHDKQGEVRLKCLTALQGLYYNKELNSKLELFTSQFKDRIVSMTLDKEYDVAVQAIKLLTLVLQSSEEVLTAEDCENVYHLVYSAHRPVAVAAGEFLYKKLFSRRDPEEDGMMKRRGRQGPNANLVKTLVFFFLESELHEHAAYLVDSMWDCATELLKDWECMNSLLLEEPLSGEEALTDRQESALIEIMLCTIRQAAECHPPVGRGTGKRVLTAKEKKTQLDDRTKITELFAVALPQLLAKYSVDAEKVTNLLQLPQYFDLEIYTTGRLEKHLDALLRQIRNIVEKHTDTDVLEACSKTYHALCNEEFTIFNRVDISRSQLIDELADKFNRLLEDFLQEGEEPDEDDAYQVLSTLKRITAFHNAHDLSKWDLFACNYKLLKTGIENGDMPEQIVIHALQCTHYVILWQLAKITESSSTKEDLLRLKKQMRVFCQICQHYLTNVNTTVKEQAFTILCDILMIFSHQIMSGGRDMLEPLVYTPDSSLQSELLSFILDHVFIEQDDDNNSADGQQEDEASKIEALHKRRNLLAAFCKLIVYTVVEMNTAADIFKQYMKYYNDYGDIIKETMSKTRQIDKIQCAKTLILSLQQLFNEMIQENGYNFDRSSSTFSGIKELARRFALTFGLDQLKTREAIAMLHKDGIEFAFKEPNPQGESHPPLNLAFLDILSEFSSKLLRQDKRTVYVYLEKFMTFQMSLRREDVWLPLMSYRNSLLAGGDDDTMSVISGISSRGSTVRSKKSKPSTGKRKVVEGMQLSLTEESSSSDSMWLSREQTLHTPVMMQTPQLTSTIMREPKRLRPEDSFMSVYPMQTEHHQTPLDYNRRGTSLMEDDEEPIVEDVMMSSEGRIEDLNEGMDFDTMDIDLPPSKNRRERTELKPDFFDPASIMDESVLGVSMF
Chain of STAG2^R370Q–RAD21 complex (O60216 whole entry, chain 2 of 2, further chain): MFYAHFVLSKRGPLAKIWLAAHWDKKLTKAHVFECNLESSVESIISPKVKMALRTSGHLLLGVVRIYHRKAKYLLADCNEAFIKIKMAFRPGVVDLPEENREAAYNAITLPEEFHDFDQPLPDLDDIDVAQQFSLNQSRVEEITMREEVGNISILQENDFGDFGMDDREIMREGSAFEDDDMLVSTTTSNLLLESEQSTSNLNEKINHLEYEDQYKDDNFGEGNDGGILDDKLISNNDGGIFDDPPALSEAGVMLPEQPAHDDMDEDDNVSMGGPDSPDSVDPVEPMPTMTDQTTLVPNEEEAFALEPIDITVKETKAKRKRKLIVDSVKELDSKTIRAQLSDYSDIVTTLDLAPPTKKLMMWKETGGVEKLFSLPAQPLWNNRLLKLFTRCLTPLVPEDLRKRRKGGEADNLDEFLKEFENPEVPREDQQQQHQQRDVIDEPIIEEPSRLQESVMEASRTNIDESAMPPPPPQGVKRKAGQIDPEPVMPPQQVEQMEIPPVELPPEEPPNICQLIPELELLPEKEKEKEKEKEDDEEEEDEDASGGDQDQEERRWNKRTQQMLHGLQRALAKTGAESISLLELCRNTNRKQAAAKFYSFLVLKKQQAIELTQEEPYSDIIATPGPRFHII

CTCF peptide
fold lower affinity than WT: 10 fold
